Results taken from IntAct's records for PubMed 22270917.

Molecular target: fak1_human PTK2 (UniProt Q05397)
Sequence (Q05397 whole entry, looked up): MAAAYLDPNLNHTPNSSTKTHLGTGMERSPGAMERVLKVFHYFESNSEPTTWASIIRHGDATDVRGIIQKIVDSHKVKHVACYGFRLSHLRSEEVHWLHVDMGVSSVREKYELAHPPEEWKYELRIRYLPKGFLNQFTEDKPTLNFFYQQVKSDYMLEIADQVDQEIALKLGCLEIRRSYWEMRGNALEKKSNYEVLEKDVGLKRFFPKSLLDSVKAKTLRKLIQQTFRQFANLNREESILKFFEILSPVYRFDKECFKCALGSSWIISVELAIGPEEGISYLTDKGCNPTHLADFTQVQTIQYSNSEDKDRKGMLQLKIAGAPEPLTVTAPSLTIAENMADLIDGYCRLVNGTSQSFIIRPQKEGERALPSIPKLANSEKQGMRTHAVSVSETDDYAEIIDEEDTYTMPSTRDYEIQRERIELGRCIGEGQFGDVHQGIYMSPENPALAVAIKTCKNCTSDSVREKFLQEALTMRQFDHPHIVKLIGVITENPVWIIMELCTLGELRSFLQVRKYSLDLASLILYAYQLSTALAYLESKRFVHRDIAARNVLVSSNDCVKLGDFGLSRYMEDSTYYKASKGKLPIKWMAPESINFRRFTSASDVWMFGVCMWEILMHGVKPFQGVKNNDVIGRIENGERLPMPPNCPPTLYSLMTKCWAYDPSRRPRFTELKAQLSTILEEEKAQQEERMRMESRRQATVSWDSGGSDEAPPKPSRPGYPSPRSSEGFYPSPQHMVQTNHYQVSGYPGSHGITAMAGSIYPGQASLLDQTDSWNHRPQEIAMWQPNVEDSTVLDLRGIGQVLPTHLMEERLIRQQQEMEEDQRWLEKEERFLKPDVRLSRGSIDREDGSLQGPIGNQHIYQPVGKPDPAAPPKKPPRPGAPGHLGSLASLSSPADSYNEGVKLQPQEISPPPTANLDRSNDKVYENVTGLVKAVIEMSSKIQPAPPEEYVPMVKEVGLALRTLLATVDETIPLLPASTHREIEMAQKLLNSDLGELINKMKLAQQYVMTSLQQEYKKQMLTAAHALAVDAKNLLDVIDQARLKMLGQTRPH

Substance | effect of a mutation on the interaction
Talin-1 (Gallus gallus (Chicken)), P54939 A360E | disrupting interaction
Talin-1 (Gallus gallus (Chicken)), P54939 W359A | disrupting interaction
